In publication PMC13142116, “Development and structure-guided characterization of a novel ACE2-binding macrocyclic peptide” (Journal of Structural Biology: X, 2026):
Positions of bridges follow the written chain, without caps; N, C: chain ends. Non-standard residues stand in square brackets, D forms with d. *: point of attachment. DOTA = O=C(O)CN1CCN(CC(=O)O)CCN(CC(=O)*)CCN(CC(=O)O)CC1

Target: T1, ACE2 on HEK-293 cells transfected with ACE2 (HEK-ACE2) (UniProt Q9BYF1 18-805)
T1 construct: ACE2 expressed in transfected HEK-293 cells; Expression verified earlier by western blotting (Beyer et al., 2023); also called ACE2-transfected HEK cells; source: HEK-293 cells transfected with ACE2, bought: Innoprot; on cells
Assay: radioligand binding; saturation binding of the radiopeptide (1-2000 nM, 5 MBq/nmol) on HEK-ACE2 cells, 1 h at 4 °C on ice, DMEM without supplements; non-specific binding determined with 20 µM DX600; n = 3
Conditions: one partner purified

T1 sequence (Q9BYF1 18-805): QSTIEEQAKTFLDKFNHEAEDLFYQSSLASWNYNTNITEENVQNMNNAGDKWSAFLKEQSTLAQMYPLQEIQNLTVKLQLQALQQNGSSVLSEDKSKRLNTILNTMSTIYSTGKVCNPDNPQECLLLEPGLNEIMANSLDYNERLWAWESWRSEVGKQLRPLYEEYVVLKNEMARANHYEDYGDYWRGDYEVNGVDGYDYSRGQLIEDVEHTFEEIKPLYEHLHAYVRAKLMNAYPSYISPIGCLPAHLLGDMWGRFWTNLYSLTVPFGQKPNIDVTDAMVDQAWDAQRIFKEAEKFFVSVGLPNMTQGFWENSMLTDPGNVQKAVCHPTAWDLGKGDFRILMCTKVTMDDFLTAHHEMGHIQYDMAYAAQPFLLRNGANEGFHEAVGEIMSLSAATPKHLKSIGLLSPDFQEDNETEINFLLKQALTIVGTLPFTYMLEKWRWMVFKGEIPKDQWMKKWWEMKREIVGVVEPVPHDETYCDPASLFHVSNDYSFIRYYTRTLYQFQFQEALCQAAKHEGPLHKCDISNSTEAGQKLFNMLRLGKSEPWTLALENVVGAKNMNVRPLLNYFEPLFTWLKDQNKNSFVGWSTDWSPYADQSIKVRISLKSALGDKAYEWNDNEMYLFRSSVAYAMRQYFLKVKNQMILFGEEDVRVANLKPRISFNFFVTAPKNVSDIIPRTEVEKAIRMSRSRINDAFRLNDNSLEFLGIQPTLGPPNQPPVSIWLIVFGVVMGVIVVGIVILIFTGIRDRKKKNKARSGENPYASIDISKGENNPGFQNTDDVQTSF

Kd: 90 nM
B1: [67Ga]Ga-DOTA-WJL-63 (peptide)
peptide: Ac-[dY]STQISRGFTRDSRGCGSGSGSK(DOTA)-NH2
modifications: bridge N-16; not fully specified (bridges); also: DOTA loaded with 67Ga
notes: WJL-63 with DOTA on the side chain of the C-terminal lysine; printed in three-letter code; Same peptide as m1 with a DOTA chelator and 67Ga; made on Rink amide resin, so the C-terminus should be an amide as in m1; also called radiolabeled DOTA-WJL-63; WJL-63 radiopeptide; source: synthetic peptide, DOTA conjugated, radiolabeled with gallium-67, used without further purification
